From article PMC6053351, “Structural and biochemical insights into human zinc finger protein AEBP2 reveals interactions with RBBP4” (Protein & Cell, 2017)
Each block holds one binder with its values, some of them ahead of it.

Experiments:
Details in all cases: both partners purified
[1] = molecular target: T1, RBBP4, full-length, wild type (UniProt Q09028 1-425); experiment: SEC; gel filtration on a Superdex 200 10/300 GL column; RBBP4 mixed with excess AEBP2 ZF-RRK, against apo RBBP4 and apo ZF-RRK; SDS-PAGE of the peaks
T1 construct: RBBP4 (also known as RbAp48), full-length; also called RbAp48; apo RBBP4
T1 sequence (Q09028 whole entry): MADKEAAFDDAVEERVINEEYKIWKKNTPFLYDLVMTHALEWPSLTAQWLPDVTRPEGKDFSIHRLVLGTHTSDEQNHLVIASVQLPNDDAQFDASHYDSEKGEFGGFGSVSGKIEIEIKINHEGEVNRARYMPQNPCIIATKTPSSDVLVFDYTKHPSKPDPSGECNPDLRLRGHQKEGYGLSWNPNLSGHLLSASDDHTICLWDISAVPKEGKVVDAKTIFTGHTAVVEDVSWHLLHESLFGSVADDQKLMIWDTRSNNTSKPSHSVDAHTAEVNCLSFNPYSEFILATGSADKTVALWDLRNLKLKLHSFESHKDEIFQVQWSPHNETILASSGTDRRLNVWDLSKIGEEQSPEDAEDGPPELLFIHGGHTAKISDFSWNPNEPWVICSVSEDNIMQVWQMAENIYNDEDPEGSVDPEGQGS

RBBP4 Glu231Ala = molecular target: T2, RBBP4 Glu231Ala (UniProt Q09028 1-425, Glu231Ala); experiment: ITC; AEBP2_(379–390) peptide titrated into RBBP4; one-site binding model, Origin 7
T2 construct: RBBP4 with the mutation Glu231Ala; parent is the wild-type RBBP4 of m1; also called RBBP4 E231A
T2 sequence (Q09028 whole entry E231A): as the sequence (Q09028 whole entry) above, with E231A counted along it

[2] = molecular target: T3, RBBP4 Glu126Ala/Asn128Ala/Glu179Ala (UniProt Q09028 1-425, Glu126Ala | Asn128Ala | Glu179Ala); experiment: as above
T3 construct: RBBP4 with the mutations Glu126Ala/Asn128Ala/Glu179Ala; parent is the wild-type RBBP4 of m1; also called RBBP4 E126A/N128A/E179A
T3 sequence (Q09028 whole entry E126A/N128A/E179A): as the sequence (Q09028 whole entry) above, with E126A, N128A, E179A counted along it

[3] = molecular target: T1, RBBP4, full-length, wild type; experiment: as above

- binding result [1]: binds
B1: AEBP2 ZF-RRK (ZF1–3 and the RRK-rich motif, residues Asn258–Asp396) (domain or fragment, human, UniProt Q6ZN18-1 258-396, looked up)
chain: NIAYNCCWDQCQACFNSSPDLADHIRSIHVDGQRGGVFVCLWKGCKVYNTPSTSQSWLQRHMLTHSGDKPFKCVVGGCNASFASQGGLARHVPTHFSQQNSSKVSSQPKAKEESPSKAGMNKRRKLKNKRRRSLPRPHD
notes: AEBP2, human, residues Asn258–Asp396 (numbering as for Uniprot entry Q6ZN18-1); also called apo AEBP2 ZF-RRK; source: recombinant protein

- fold reduction of binding affinity against wild-type RBBP4 (RBBP4 Glu231Ala): 5 fold
- fold reduction of binding affinity against wild-type RBBP4 [2]: 7 fold
- Kd [3]: 7.6 ± 0.6 µM
- dH [3]: -15.9 ± 0.395 kcal/mol
B2: AEBP2_(379–390) peptide (RRK-rich motif, residues Lys379–Ser390) (peptide, UniProt Q6ZN18-1 379-390, looked up)
peptide: KRRKLKNKRRRS
notes: AEBP2, human, RRK-rich motif, residues Lys379–Ser390 of Uniprot entry Q6ZN18-1; source: synthetic peptide

- fold reduction of binding affinity against the wild-type peptide [3]: ~20 fold
B3: AEBP2_(379–390) peptide with mutations Arg380Ala/Lys382Ala (peptide, UniProt Q6ZN18-1 379-390, looked up)
peptide: KARALKNKRRRS
notes: AEBP2, human, residues Lys379–Ser390 of Uniprot entry Q6ZN18-1 with Arg380Ala/Lys382Ala
